Measured values published in patent US20210070829A1 (ZHEJIANG DOER BIOLOGICS, published 2021).

B1: C495 L9F10L9M1 (Fc fusion)
chain: HSQGTFTSDYSKYLDEQAAQDFVQWLMNGGPSSGAPPPSGGGGSGGGGSGGGGSESKYGPPCPPCPAPEAAGGPSVFLFPPKPKDTLMISRTPEVTCVVVDVSQEDPEVQFNWYVDGVEVHNAKTKPREEQFASTYRVVSVLTVLHQDWLNGKEYKCKVSNKGLPSSIEKTISKAKGQPREPQVYTLPPSQEEMTKNQVSLTCLVKGFYPSDIAVEWESNGQPENNYKTTPPVLDSDGSFFLYSRLTVDKSRWQEGNVFSCSVMHEALHNHYTQKSLSLSLGGGGGSGGGGSGGGGSHPIPDSSPLLQFGGQVRQRYLYTDDAQQTEAHLEIREDGTVGGAADQSPESLLQLKALKPGVIQILGVKTSRFLCQRPDGALYGSLHFDPEACSFRERLLEDGYNVYQSEAHGLPLHLPGNKSPHRDPAPRGPARFLPLPGLPPALPEPPGILAPQPPDVGSSDPLSMVGGSQGRSPSYES
B2: C788 L1F5L5M5 (Fc fusion)
chain: HSQGTFTSDYSKQMDSQRAQDFVQWLMNTKRNRNNIAGGGGSERKCCVECPPCPAPPVAGPSVFLFPPKPKDTLMISRTPEVTCVVVDVSHEDPEVQFNWYVDGVEVHNAKTKPREEQFNSTFRVVSVLTVVHQDWLNGKEYKCKVSNKGLPSSIEKTISKTKGQPREPQVYTLPPSREEMTKNQVSLTCLVKGFYPSDIAVEWESNGQPENNYKTTPPMLDSDGSFFLYSKLTVDKSRWQQGNVFSCSVMHEALHNHYTQKSLSLSPGGGGGSGGGGSHPIPDSSPLLQFGGQVRQRYLYTDDAQQTEAHLEIREDGTVGGAEDQSPESLLQLKALKPGVIQILGVKTSRFLCQRPDGALYGSLHFDPEACSFRERLLEDGYNVYQSEAHGLPLHCPGNKSPHRDPAPRGPCRFLPLPGLPPALPEPPGILAPQPPDVGSSDPLSMVGGSQGRSPSYES
B3: C225 L10F10L14M2 (Fc fusion)
chain: HSQGTFTSDYSKYLDERAAQDFVQWLMNTGPSSGAPPPSGGGGAGGGGAGGGGAESKYGPPCPPCPAPEAAGGPSVFLFPPKPKDTLMISRTPEVTCVVVDVSQEDPEVQFNWYVDGVEVHNAKTKPREEQFASTYRVVSVLTVLHQDWLNGKEYKCKVSNKGLPSSIEKTISKAKGQPREPQVYTLPPSQEEMTKNQVSLTCLVKGFYPSDIAVEWESNGQPENNYKTTPPVLDSDGSFFLYSRLTVDKSRWQEGNVFSCSVMHEALHNHYTQKSLSLSLGGGGGAGGGGAGGGGASHPIPDSSPLLQFGGQVRQRYLYTDDAQQTEAHLEIREDGTVGGAADQSPESLLQLKALKPGVIQILGVKTSRFLCQRPDGALYGSLHFDPEACSFRERLLEDGYNVYQSEAHGLPLHCPGNKSPHRDPAPRGPCRFLPLPGLPPALPEPPGILAPQPPDVGSSDPLSMVGGSQGRSPSYES
B4: C240 L13F10L9M2 (Fc fusion)
chain: HSQGTFTSDYSKYLDERAAQDFVQWLMNGGPSSGAPPPSGGGGSGGGGSGGGGSAESKYGPPCPPCPAPEAAGGPSVFLFPPKPKDTLMISRTPEVTCVVVDVSQEDPEVQFNWYVDGVEVHNAKTKPREEQFASTYRVVSVLTVLHQDWLNGKEYKCKVSNKGLPSSIEKTISKAKGQPREPQVYTLPPSQEEMTKNQVSLTCLVKGFYPSDIAVEWESNGQPENNYKTTPPVLDSDGSFFLYSRLTVDKSRWQEGNVFSCSVMHEALHNHYTQKSLSLSLGGGGGSGGGGSGGGGSHPIPDSSPLLQFGGQVRQRYLYTDDAQQTEAHLEIREDGTVGGAADQSPESLLQLKALKPGVIQILGVKTSRFLCQRPDGALYGSLHFDPEACSFRERLLEDGYNVYQSEAHGLPLHCPGNKSPHRDPAPRGPCRFLPLPGLPPALPEPPGILAPQPPDVGSSDPLSMVGGSQGRSPSYES
B5: C462 L13F10L9M4 (Fc fusion)
chain: HSQGTFTSDYSKYLDEEAAQDFVQWLMNGGPSSGAPPPSGGGGSGGGGSGGGGSAESKYGPPCPPCPAPEAAGGPSVFLFPPKPKDTLMISRTPEVTCVVVDVSQEDPEVQFNWYVDGVEVHNAKTKPREEQFASTYRVVSVLTVLHQDWLNGKEYKCKVSNKGLPSSIEKTISKAKGQPREPQVYTLPPSQEEMTKNQVSLTCLVKGFYPSDIAVEWESNGQPENNYKTTPPVLDSDGSFFLYSRLTVDKSRWQEGNVFSCSVMHEALHNHYTQKSLSLSLGGGGGSGGGGSGGGGSHPIPDSSPLLQFGGQVRQRYLYTDDAQQTEAHLEIREDGTVGGAADQSPESLLQLKALKPGVIQILGVKTSRFLCQRPDGALYGSLHFDPEACSFRERLLEDGYNVYQSEAHGLPLHCPGNKSPHRDPAPRGPCRFLPLPGLPPALPEPPGILAPQPPDVGSSDPLAMVGGSQGRSPSYES
B6: C382 L13F10L9M1 (Fc fusion)
chain: HSQGTFTSDYSKYLDSQAAQDFVQWLMNGGPSSGAPPPSGGGGSGGGGSGGGGSAESKYGPPCPPCPAPEAAGGPSVFLFPPKPKDTLMISRTPEVTCVVVDVSQEDPEVQFNWYVDGVEVHNAKTKPREEQFASTYRVVSVLTVLHQDWLNGKEYKCKVSNKGLPSSIEKTISKAKGQPREPQVYTLPPSQEEMTKNQVSLTCLVKGFYPSDIAVEWESNGQPENNYKTTPPVLDSDGSFFLYSRLTVDKSRWQEGNVFSCSVMHEALHNHYTQKSLSLSLGGGGGSGGGGSGGGGSHPIPDSSPLLQFGGQVRQRYLYTDDAQQTEAHLEIREDGTVGGAADQSPESLLQLKALKPGVIQILGVKTSRFLCQRPDGALYGSLHFDPEACSFRERLLEDGYNVYQSEAHGLPLHLPGNKSPHRDPAPRGPARFLPLPGLPPALPEPPGILAPQPPDVGSSDPLSMVGGSQGRSPSYES
B7: C227 L12F5L14M4 (Fc fusion)
chain: HSQGTFTSDYSKYLDSQAAQDFVQWLMNTGPSSGAPPSGGGGAGGGGAGGGGAAERKCCVECPPCPAPPVAGPSVFLFPPKPKDTLMISRTPEVTCVVVDVSHEDPEVQFNWYVDGVEVHNAKTKPREEQFNSTFRVVSVLTVVHQDWLNGKEYKCKVSNKGLPSSIEKTISKTKGQPREPQVYTLPPSREEMTKNQVSLTCLVKGFYPSDIAVEWESNGQPENNYKTTPPMLDSDGSFFLYSKLTVDKSRWQQGNVFSCSVMHEALHNHYTQKSLSLSPGGGGGAGGGGAGGGGASHPIPDSSPLLQFGGQVRQRYLYTDDAQQTEAHLEIREDGTVGGAADQSPESLLQLKALKPGVIQILGVKTSRFLCQRPDGALYGSLHFDPEACSFRERLLEDGYNVYQSEAHGLPLHCPGNKSPHRDPAPRGPCRFLPLPGLPPALPEPPGILAPQPPDVGSSDPLAMVGGSQGRSPSYES
B8: C462 L10F5L10M3 (Fc fusion)
chain: HSQGTFTSDYSKYLDEEAAQDFVQWLMNGGPSSGAPPPSGGGGAGGGGAGGGGAERKCCVECPPCPAPPVAGPSVFLFPPKPKDTLMISRTPEVTCVVVDVSHEDPEVQFNWYVDGVEVHNAKTKPREEQFNSTFRVVSVLTVVHQDWLNGKEYKCKVSNKGLPSSIEKTISKTKGQPREPQVYTLPPSREEMTKNQVSLTCLVKGFYPSDIAVEWESNGQPENNYKTTPPMLDSDGSFFLYSKLTVDKSRWQQGNVFSCSVMHEALHNHYTQKSLSLSPGGGGGAGGGGAGGGGADSSPLLQFGGQVRQRYLYTDDAQQTEAHLEIREDGTVGGAADQSPESLLQLKALKPGVIQILGVKTSRFLCQRPDGALYGSLHFDPEACSFRELLLEDGYNVYQSEAHGLPLHCPGNKSPHRDPAPRGPCRFLPLPGLPPALPEPPGILAPQPPDVGSSDPLAMVGPSQGRSPSYAS
B9: C711 L13F5L10M4 (Fc fusion)
chain: HSQGTFTSDYSKYLDSQAAQDFVQWLMNTKRNRNNIAGGGGSGGGGSGGGGSAERKCCVECPPCPAPPVAGPSVFLFPPKPKDTLMISRTPEVTCVVVDVSHEDPEVQFNWYVDGVEVHNAKTKPREEQFNSTFRVVSVLTVVHQDWLNGKEYKCKVSNKGLPSSIEKTISKTKGQPREPQVYTLPPSREEMTKNQVSLTCLVKGFYPSDIAVEWESNGQPENNYKTTPPMLDSDGSFFLYSKLTVDKSRWQQGNVFSCSVMHEALHNHYTQKSLSLSPGGGGGAGGGGAGGGGAHPIPDSSPLLQFGGQVRQRYLYTDDAQQTEAHLEIREDGTVGGAADQSPESLLQLKALKPGVIQILGVKTSRFLCQRPDGALYGSLHFDPEACSFRERLLEDGYNVYQSEAHGLPLHCPGNKSPHRDPAPRGPCRFLPLPGLPPALPEPPGILAPQPPDVGSSDPLAMVGGSQGRSPSYES
B10: C627 L12F10L9M6 (Fc fusion)
chain: HSQGTFTSDYSKQMDSQRAQDFVQWLMNGGPSSGAPPPSGGGGAGGGGAGGGGAAESKYGPPCPPCPAPEAAGGPSVFLFPPKPKDTLMISRTPEVTCVVVDVSQEDPEVQFNWYVDGVEVHNAKTKPREEQFASTYRVVSVLTVLHQDWLNGKEYKCKVSNKGLPSSIEKTISKAKGQPREPQVYTLPPSQEEMTKNQVSLTCLVKGFYPSDIAVEWESNGQPENNYKTTPPVLDSDGSFFLYSRLTVDKSRWQEGNVFSCSVMHEALHNHYTQKSLSLSLGGGGGSGGGGSGGGGSHPIPDSSPLLQFGGQVRQRYLYTDDAQQTEAHLEIREDGTVGGAADQSPESLLQLKALKPGVIQILGVKTSRFLCQRPDGALYGSLHFDPEACSFRERLLEDGYNVYQSEAHGLPLHCPGNKSPHRDPAPRGPCRFLPLPGLPPALPEPPGILAPQPPDVGSSDPLSMVEPSQGRSPSYAS

What was measured:
Assay in all cases: cell-based or functional assay
[1] = biological target: human GLP-1 receptor (human, UniProt P43220 24-463)
[2] = biological target: FGFR/β-Klotho receptor complex
[3] = biological target: Glucagon receptor

Binder	GLP-1R agonist activity EC50 (luciferase reporter) [1] [nM]	FGF21 activity EC50 (luciferase reporter) [2] [nM]	GCGR agonist activity EC50 (luciferase reporter) [3] [nM]
B1	1.21	0.84	1.43
B2	10.6	0.88	7.64
B3	1.42	0.85	1.17
B4	1.21	0.89	1.25
B5	1.11	1.33	1.23
B6	1.13	0.76	1.27
B7	1.55	0.71	1.38
B8	1.23	1.37	1.22
B9	10.8	0.75	9.55
B10	1.48	1.11	1.69
